The results in this text go back to patent CN107793480A (SHANGHAI JIBEI BIOLOGICAL TECH CO LTD, dated 2018).

The target in experiment [1] is CD19 (antigen of the phage competition ELISA) (human) (UniProt P15391). In words: phage competition ELISA on CD19; competitor 3ug/ml FMC63mIgG2a, anti-mouse Fc detection.
A further experiment addresses T1, CD19-His (human, UniProt P15391 20-291).
T1 construct: Amine-coupled to AR2G biosensors for BLI; also called CD19-His抗原; not shown: His tag
T1 sequence (looked up): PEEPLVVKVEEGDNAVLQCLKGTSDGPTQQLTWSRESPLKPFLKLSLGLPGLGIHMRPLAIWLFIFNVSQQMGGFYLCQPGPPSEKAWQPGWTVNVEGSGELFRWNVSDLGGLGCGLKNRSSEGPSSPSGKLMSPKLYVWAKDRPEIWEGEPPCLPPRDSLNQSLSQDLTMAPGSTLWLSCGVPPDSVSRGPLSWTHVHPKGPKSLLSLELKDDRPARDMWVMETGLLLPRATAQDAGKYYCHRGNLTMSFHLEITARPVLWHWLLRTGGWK
In words: BLI (ForteBio Octet), CD19-His amine-coupled to AR2G sensor, scFv-hIgG1 in solution. (In general: Biolayer interferometry detects binding as a change in optical thickness at a sensor tip.)

Experiment [2] deals with T2, CD19 on Raji cells (human, UniProt P15391 20-556).
T2 construct: whole, on cells; also called Raji细胞(CD19+)
T2 sequence (looked up): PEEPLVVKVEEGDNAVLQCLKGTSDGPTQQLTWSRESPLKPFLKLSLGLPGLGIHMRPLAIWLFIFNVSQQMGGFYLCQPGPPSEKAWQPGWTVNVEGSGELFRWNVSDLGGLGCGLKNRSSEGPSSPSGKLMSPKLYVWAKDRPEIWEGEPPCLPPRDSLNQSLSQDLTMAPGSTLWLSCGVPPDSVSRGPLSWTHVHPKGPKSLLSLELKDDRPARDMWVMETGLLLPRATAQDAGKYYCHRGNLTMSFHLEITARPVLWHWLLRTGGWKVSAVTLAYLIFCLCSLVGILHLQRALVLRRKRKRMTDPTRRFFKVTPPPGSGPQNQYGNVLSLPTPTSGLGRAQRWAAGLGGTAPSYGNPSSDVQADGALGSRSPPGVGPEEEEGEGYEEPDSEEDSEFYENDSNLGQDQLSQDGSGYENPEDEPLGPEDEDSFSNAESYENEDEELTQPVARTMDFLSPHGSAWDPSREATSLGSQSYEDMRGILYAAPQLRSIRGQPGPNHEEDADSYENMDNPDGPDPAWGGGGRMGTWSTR
As to the kind of experiment: flow cytometry on Raji cells, anti-human IgG Fc-PE, MFI against concentration. For orientation: Flow cytometry measures light scatter and fluorescence of single cells or particles in a stream.

For experiment [3], the target named is T2, CD19 on Raji cells. In words: flow cytometry on Raji cells, scFv-hIgG1, all four in one experiment.

“NC (negative control in the phage ELISAs)”: the Emax(最大抑制率) in experiment [1] is 19%.
In turn, “NC (negative control in the scFv-hIgG1 BLI table)” displayed a Response with CD19-His of 0.09.

B1: 4B10-hIgG1 (Fc fusion)
chain: EVKLQESGPGLVAPSQSLSVTCTVSGFSLEDYGVSWIRQPPRKGLEWLGVIWGSETTYYNSALKSRLTIIKDNSKSQVFLKMNSLQTDDTAIYYCAKHYYYGGSYAMDYWGQGTSVTVSSGGGGSGGGGSGGGGSDIQMTQTTSSLSASLGDRVTISCRASQDISKYLNWYQQKPDGTVKLLIYHTSRLHSGVPSRFSGSGSGTDYSLTISNLEQEDIATYFCQQGNTLPYTFGGGTKLEIT
notes: Secreted scFv-hIgG1Fc fusion from 293 cells, protein A purified; Junction between scFv and Fc not described; also called 4B10 scFv-hIgG1Fc融合蛋白; not shown: human IgG1 Fc (hIgG1Fc) from vector pGCIgGH1
Usually EC50 stands for the midpoint of the concentration-response curve. The low end stands for greater potency, the high end for weaker potency. What is called koff is the rate constant with which the complex falls apart. In the experiment with CD19 on Raji cells [2], B1 gave an EC50 of 0.16 µg/mL. Further, in the experiment with CD19-His, the Response stood at 0.35 and the koff stood at 0.000895 s⁻¹.

B2: C21-hIgG1 (Fc fusion)
chain: EVKLQESGPGLVAPSQSLSVTCTVSGFSLEDYGVSWIRQPPRKGLEWLGVIWGSETTYYNSALKSRLTIIKDNSKSQVFLKMNSLQTDDTAIYYCAKHYYYGGSYAMDYWGQGTSVTVSSGGGGSGGGGSGGGGSDIQMTQTTSSLSASLGDRVTISCRASQDISKYLNWYQQKPDGTVKLLIYHTSRLHSGVPSRFSGSGSGTDYSLTISNLEQEDIATYFCQQGKTFPLTFGGGTKLEIT
notes: also called 4B10&8A10组合突变; not shown: human IgG1 Fc (hIgG1Fc) from vector pGCIgGH1
In the case of B2, the EC50 was determined as 0.23 µg/mL with CD19 on Raji cells [3] and 0.09 µg/mL with CD19 on Raji cells [2].

B3: 8A10-hIgG1 (Fc fusion)
chain: EVKLQESGPGLVAPSQSLSVTCTVSGVSLPDYGVSWIRQPPRKGPEWLGVIWGSETTYYNSALKSRLTIIKDNSKSQVFLKMNSLQTDDTAIYYCAKHYYYGGSYAMDYWGQGTSVTVSSGGGGSGGGGSGGGGSDIQMTQTTSSLSASLGDRVTISCRASQDISKYLNWYQQKPDGTVKLLIYHTSRLHSGVPSRFSGSGSGTDYSLTISNLEQEDIATYFCQQGKTFPLTFGGGTKLEIT
notes: Secreted scFv-hIgG1Fc fusion from 293 cells, protein A purified; also called 8A10 scFv-hIgG1Fc融合蛋白; not shown: human IgG1 Fc (hIgG1Fc) from vector pGCIgGH1
On to B3, for which the EC50 in the experiment with CD19 on Raji cells [2] amounted to 0.13 µg/mL. Moreover, in the experiment with CD19-His, the Response was 0.418 and the koff stood at 0.000913 s⁻¹.

B4: 7E11-hIgG1 (Fc fusion)
chain: EIVMTQSPATLSLSPGERATLSCRASQDISKYLNWYQQKPGQAPRLLIYHTSRLHSGIPARFSGSGSGTDYTLTISSLQPEDFAVYFCQQGKTFPLTFGQGTKLEIKGGGGSGGGGSGGGGSQVQLQESGPGLVKPSETLSLTCTVSGFSLEDYGVSWIRQPPGKGLEWIGVIWGSETTYYNSSLKSRVTISKDNSKNQVSLKLSSVTAADTAVYYCAKHYYYGGSYAMDYWGQGTLVTVSS
notes: not shown: human IgG1 Fc (hIgG1Fc) from vector pGCIgGH1
In the case of B4, the midpoint of the response in the experiment with CD19 on Raji cells [3], the EC50, lay at 0.36 µg/mL.

B5: C2146-hIgG1 (Fc fusion)
chain: EIVMTQSPATLSLSPGERATLSCRASQDISKYLNWYQQKPGQAPRLLIYHTSRLHSGIPARFSGSGSGTDYTLTISSLQPEDFAVYFCQQGNTLPYTFGQGTKLEIKGGGGSGGGGSGGGGSQVQLQESGPGLVKPSETLSLTCTVSGVSLPDYGVSWIRQPPGKGLEWIGVIWGSETTYYNSSLKSRVTISKDNSKNQVSLKLSSVTAADTAVYYCAKHYYYGGSYAMDYWGQGTLVTVSS
notes: also called C2146 scFv-hIgG1; not shown: human IgG1 Fc (hIgG1Fc) from vector pGCIgGH1
B5 yielded an EC50 with CD19 on Raji cells [3] of 2.63 µg/mL.
